By EC50 is commonly meant the concentration needed to bring the measured effect to its halfway point. What is called Emax is the maximal effect, on the per cent scale that the assay sets.

The record followed here is patent US20220010021A1 (Sanofi, published 2022).

Numbering of substitutions follows the chain as printed. Where only a bound is given, the exact number is not on record here.

The target in the assay is human FGFR1c + KLB receptor complex on HEK293 iLite FGF21 reporter cells (human, UniProt P11362 22-822; Q86Z14 1-1044). As to the kind of experiment: cell-based or functional assay.
Chain of human FGFR1c + KLB receptor complex on HEK293 iLite FGF21 reporter cells (P11362 22-822, chain 1 of 2): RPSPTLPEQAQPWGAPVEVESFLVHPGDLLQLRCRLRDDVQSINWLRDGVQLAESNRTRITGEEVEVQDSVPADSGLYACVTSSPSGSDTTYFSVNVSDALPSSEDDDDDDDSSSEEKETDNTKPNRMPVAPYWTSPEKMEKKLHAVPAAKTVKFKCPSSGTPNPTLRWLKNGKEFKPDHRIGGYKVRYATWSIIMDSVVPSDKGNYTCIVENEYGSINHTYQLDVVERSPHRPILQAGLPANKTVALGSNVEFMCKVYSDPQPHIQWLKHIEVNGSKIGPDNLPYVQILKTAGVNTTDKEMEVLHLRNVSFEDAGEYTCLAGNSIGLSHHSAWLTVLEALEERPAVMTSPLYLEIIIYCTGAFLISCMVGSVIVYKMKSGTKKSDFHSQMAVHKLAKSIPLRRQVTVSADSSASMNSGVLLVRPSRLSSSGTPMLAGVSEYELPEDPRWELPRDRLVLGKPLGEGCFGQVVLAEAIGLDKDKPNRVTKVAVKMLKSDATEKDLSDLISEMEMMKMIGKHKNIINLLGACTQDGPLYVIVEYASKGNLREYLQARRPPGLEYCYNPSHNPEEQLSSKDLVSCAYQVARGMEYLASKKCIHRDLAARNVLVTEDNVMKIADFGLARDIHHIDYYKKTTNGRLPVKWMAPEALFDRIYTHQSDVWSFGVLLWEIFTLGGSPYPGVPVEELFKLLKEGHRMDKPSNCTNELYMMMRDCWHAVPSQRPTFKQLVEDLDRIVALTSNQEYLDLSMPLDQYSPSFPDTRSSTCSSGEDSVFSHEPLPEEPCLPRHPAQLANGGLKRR
Chain of human FGFR1c + KLB receptor complex on HEK293 iLite FGF21 reporter cells (Q86Z14 whole entry, chain 2 of 2): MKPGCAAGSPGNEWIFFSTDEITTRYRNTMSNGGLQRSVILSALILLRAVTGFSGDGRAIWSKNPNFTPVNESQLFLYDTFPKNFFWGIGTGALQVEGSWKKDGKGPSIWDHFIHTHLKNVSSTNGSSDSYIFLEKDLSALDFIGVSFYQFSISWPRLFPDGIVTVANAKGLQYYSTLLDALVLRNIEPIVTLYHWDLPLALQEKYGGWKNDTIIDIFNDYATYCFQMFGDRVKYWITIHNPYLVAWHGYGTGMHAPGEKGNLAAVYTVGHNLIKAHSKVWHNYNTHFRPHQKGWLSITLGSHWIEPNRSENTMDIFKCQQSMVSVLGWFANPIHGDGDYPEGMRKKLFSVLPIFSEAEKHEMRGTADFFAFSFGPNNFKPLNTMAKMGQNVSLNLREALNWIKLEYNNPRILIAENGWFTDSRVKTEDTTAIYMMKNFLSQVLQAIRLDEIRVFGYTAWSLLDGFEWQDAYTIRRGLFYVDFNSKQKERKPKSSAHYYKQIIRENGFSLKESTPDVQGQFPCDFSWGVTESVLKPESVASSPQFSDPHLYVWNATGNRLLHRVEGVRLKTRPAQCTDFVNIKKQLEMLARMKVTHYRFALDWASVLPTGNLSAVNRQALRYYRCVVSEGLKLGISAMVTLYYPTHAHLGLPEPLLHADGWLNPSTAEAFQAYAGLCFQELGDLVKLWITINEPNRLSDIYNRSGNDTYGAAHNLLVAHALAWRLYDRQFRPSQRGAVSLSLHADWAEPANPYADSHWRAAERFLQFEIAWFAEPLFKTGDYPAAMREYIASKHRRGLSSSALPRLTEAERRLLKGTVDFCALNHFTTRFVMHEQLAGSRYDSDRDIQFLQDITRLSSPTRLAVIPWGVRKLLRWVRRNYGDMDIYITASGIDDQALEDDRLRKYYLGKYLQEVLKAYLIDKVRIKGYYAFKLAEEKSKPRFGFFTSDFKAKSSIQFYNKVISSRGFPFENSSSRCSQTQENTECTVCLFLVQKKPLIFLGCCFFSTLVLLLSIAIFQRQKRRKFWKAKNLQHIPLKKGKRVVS

B1: Ab0382 (antibody, IgG4, V domains shown)
VH: QVTLKESGPVLVKPTETLTLTCTVSGFSLNNARVGVSWIRQPPGKALEWLASIWSNDEKSYSTSLKSRLTISKDTSKSQVVLTMTNMDPVDTATYYCARSVVTGGYYYEGMDVWGQGTTVTVSS
VL: SYVLTQPPSVSVAPGQTARITCGGNNIGSESVHWYQQKPGQAPVLVVDDSDRPSGIPERFSGSNSGNTATLTISRVEAGDEADYYCQVFDGNCVCVVFGGGTKLTVLG
With B1, the EC50 was above 100 nM.

B2: Ab0334 (antibody, IgG4, V domains shown)
VH: B1 VH with S52H, W54F
VL: SYVLTQPPSVSVAPGQTARITCGGSNIGSESVHWYQQKPGQAPVLVVYSASDRPSGIPERFSGSNSGNTATLTISRVEAGDEADYYCQVWAGSSDHVVFGGGTKLTVLG
For B2, the EC50 came to 1.02 nM and the Emax turned out to be 718%.

B3: Ab0328 (antibody, IgG4, V domains shown)
VH: B1 VH with S52H, W54F
VL: B2 VL with S49Y
As for B3, the EC50 turned out to be 4.11 nM and the Emax turned out to be 421%.

B4: Ab0347 (antibody, IgG4, V domains shown)
VH: B1 VH with S52H, W54F
VL: B2 VL with S49A, A50S
As for B4, the EC50 turned out to be 0.24 nM and the Emax was 695%.

B5: Ab0339 (antibody, IgG4, V domains shown)
VH: B1 VH with S52H, W54F
VL: B2 VL with S49A, A50E
B5: the EC50 amounted to 2.16 nM and the Emax came to 545%.

B6: Ab0336 (antibody, IgG4, V domains shown)
VH: B1 VH with S52H, W54F
VL: B2 VL with A50H
On to B6, for which the EC50 amounted to 2.91 nM and the Emax worked out at 576%.

B7: Ab0342 (antibody, IgG4, V domains shown)
VH: B1 VH with S52H, W54F
VL: B2 VL with S49A, S93E
Regarding B7, the EC50 was 0.34 nM and the Emax came out at 775%.

B8: Ab0359 (antibody, IgG4, V domains shown)
VH: B1 VH with S52H, W54F
VL: B2 VL with S49E, A50H
Turning to B8, the EC50 turned out to be 2.53 nM and the Emax amounted to 550%.

B9: Ab0348 (antibody, IgG4, V domains shown)
VH: B1 VH with S52H, W54F
VL: B2 VL with S49E, A50E, A91T, S93E
Take B9: the EC50 came out at 0.53 nM and the Emax amounted to 641%.

B10: Ab0343 (antibody, IgG4, V domains shown)
VH: B1 VH with S52H, W54F
VL: B2 VL with S49A
With B10, the EC50 was 1.37 nM and the Emax worked out at 482%.

B11: Ab0362 (antibody, IgG4, V domains shown)
VH: B1 VH with S52H, W54F
VL: B2 VL with S49T, A50E
Turning to B11, the EC50 turned out to be 11.6 nM and the Emax was 662%.

B12: Ab0346 (antibody, IgG4, V domains shown)
VH: B1 VH with S52H, W54F
VL: B2 VL with S49A, A50H
Consider B12, for which the 50% effective concentration (EC50) was 2.25 nM and the Emax came to 532%.

B13: Ab0341 (antibody, IgG4, V domains shown)
VH: B1 VH with S52H, W54F
VL: B2 VL with S49A, A50Y
On to B13, for which the EC50 came to 1.4 nM and the Emax is 528%.

B14: Ab0363 (antibody, IgG4, V domains shown)
VH: B1 VH with S52H, W54F
VL: B2 VL with S25A, S93A
As for B14, the half-maximal effective concentration (EC50) came out at 0.48 nM and the Emax came to 736%.

B15: Ab0356 (antibody, IgG4, V domains shown)
VH: B1 VH with S52H, W54F
VL: B2 VL with S49E
Consider B15, for which the EC50 was found to be 5.35 nM and the Emax worked out at 620%.

B16: Ab0329 (antibody, IgG4, V domains shown)
VH: B1 VH with S52H, W54F
VL: B2 VL with S49Y, A50S
Consider B16, for which the EC50 came to 4.59 nM and the Emax was determined as 443%.

B17: Ab0349 (antibody, IgG4, V domains shown)
VH: B1 VH with S52H, W54F
VL: B2 VL with S49E, A50E, A91T
For the molecule B17, the EC50 is 10.7 nM and the Emax was 511%.

B18: Ab0389 (antibody, IgG4, V domains shown)
VH: B1 VH
VL: B1 VL with S1C, V94S, C95H
In the case of B18, the EC50 is above 100 nM.

B19: Ab0403 (antibody, IgG4, V domains shown)
VH: B1 VH with S52W, W54F
VL: B1 VL with S1C, V94A, C95H
As to B19, the EC50 was above 100 nM.

B20: Ab0410 (antibody, IgG4, V domains shown)
VH: B1 VH with S52H, W54F
VL: B1 VL with F89Y, C93S, V94S, C95H
In the case of B20, the EC50 was above 100 nM.

B21: Ab0397 (antibody, IgG4, V domains shown)
VH: B1 VH with S52H
VL: B1 VL with S1C, V94A, C95H
Turning to B21, the EC50 was above 100 nM.

B22: Ab0402 (antibody, IgG4, V domains shown)
VH: B1 VH with S52W, W54F
VL: B1 VL with V94A
As to B22, the half-maximal effective concentration (EC50) was above 100 nM.

B23: Ab0394 (antibody, IgG4, V domains shown)
VH: B1 VH with S52W, W54F
VL: B1 VL with S1C, V94S, C95H
As for B23, the EC50 is above 100 nM.

B24: Ab0406 (antibody, IgG4, V domains shown)
VH: B1 VH
VL: B1 VL with S1C, V94T, C95H
In the case of B24, the EC50 is above 100 nM.

B25: Ab0390 (antibody, IgG4, V domains shown)
VH: B1 VH with S52H
VL: B1 VL with V94S
As for B25, the EC50 was above 100 nM.

B26: Ab0405 (antibody, IgG4, V domains shown)
VH: B1 VH
VL: B1 VL with C93S, V94T, C95H
For B26, the EC50 was above 100 nM.

B27: Ab0401 (antibody, IgG4, V domains shown)
VH: B1 VH with S52W, W54F
VL: B1 VL with C93S, V94A, C95H
As to B27, the EC50 was above 100 nM.

B28: Ab0408 (antibody, IgG4, V domains shown)
VH: B1 VH with S52W, W54F
VL: B1 VL with C93S, V94T, C95H
Regarding B28, the EC50 is above 100 nM.

B29: Ab0393 (antibody, IgG4, V domains shown)
VH: B1 VH with S52W, W54F
VL: B1 VL with V94S
In the case of B29, the EC50 is above 100 nM.

B30: Ab0398 (antibody, IgG4, V domains shown)
VH: B1 VH
VL: B1 VL with S1C, V94A, C95H
As to B30, the EC50 is above 100 nM.

B31: Ab0391 (antibody, IgG4, V domains shown)
VH: B1 VH
VL: B1 VL with V94S
For B31, the EC50 was above 100 nM.

B32: Ab0399 (antibody, IgG4, V domains shown)
VH: B1 VH with S52H
VL: B1 VL with V94A
In the case of B32, the EC50 was above 100 nM.

B33: Ab0396 (antibody, IgG4, V domains shown)
VH: B1 VH
VL: B1 VL with C93S, V94A, C95H
Turning to B33, the EC50 was above 100 nM.

B34: Ab0404 (antibody, IgG4, V domains shown)
VH: B1 VH with S52H
VL: B1 VL with C93S, V94T, C95H
As for B34, the concentration giving a half-maximal response (EC50) was above 100 nM.

B35: Ab0392 (antibody, IgG4, V domains shown)
VH: B1 VH with S52W, W54F
VL: B1 VL with C93S, V94S, C95H
Regarding B35, the EC50 was above 100 nM.

B36: Ab0383 (antibody, IgG4, V domains shown)
VH: B1 VH with S52W, W54F
VL: B1 VL with C93S, C95H
In the case of B36, the EC50 was above 100 nM.

B37: Ab0400 (antibody, IgG4, V domains shown)
VH: B1 VH
VL: B1 VL with V94A
For the molecule B37, the EC50 was above 100 nM.

B38: Ab0331 (antibody, human IgG4 S228P, lambda)
heavy: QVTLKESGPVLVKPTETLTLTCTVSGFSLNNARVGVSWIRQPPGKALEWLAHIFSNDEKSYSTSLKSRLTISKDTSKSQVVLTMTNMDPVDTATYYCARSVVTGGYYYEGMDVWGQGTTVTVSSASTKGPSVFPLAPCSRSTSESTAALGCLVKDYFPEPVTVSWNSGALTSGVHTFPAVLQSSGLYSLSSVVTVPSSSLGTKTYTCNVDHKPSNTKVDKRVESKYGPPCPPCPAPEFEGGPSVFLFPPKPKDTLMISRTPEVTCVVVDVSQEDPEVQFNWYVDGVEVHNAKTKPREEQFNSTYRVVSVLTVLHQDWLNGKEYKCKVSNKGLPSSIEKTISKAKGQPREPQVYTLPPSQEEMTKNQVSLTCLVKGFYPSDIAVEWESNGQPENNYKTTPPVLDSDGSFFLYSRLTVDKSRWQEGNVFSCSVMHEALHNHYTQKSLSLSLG
light: SYVLTQPPSVSVAPGQTARITCGGSNIGSESVHWYQQKPGQAPVLVVYSESDRPSGIPERFSGSNSGNTATLTISRVEAGDEADYYCQVWEGESDHVVFGGGTKLTVLGQPKANPTVTLFPPSSEELQANKATLVCLISDFYPGAVTVAWKADGSPVKAGVETTKPSKQSNNKYAASSYLSLTPEQWKSHRSYSCQVTHEGSTVEKTVAPTECS
With B38, the EC50 was determined as 0.04 nM and the Emax worked out at 1090%.

B39: Ab0335 (antibody, human IgG4 S228P, lambda)
heavy: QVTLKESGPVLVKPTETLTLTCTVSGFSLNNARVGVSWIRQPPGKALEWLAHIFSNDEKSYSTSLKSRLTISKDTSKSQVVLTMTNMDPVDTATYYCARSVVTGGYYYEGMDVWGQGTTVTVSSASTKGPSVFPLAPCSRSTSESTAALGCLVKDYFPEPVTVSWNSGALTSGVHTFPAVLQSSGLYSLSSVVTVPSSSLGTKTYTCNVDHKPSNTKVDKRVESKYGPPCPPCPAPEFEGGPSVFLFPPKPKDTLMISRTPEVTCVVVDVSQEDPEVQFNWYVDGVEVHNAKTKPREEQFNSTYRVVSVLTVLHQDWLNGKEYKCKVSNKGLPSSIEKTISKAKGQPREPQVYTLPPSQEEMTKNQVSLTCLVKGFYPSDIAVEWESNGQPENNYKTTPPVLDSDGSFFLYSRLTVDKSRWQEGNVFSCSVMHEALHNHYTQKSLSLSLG
light: B38 light with E50A
For B39, the EC50 is 0.04 nM and the Emax was determined as 1220%.

B40: Ab0351 (antibody, human IgG4 S228P, lambda)
heavy: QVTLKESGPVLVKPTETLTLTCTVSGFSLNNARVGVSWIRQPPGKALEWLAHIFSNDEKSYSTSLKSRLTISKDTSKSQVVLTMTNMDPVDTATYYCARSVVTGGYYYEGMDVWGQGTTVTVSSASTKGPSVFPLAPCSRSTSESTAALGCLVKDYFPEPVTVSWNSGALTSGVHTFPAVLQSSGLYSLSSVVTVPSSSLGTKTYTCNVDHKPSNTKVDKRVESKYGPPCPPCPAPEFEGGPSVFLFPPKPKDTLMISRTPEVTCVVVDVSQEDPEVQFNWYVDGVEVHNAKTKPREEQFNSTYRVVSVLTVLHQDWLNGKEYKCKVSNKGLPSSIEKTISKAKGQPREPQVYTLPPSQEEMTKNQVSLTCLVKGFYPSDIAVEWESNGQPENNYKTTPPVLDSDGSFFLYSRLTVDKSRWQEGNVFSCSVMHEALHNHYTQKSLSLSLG
light: B38 light with S49E
Regarding B40, the EC50 worked out at 0.03 nM and the Emax amounted to 1040%.
